Consider 1 substance from paper PMC8267615.

Experiment [1] addresses TREM-1 expressed on the monocyte cell membrane (human (endogenous in monocytes)) (UniProt Q9NP99).
The target is the same in experiment [2]. This is another data set of the same source.

Sequence of TREM-1 expressed on the monocyte cell membrane (human (endogenous in monocytes)) (Q9NP99 21-234): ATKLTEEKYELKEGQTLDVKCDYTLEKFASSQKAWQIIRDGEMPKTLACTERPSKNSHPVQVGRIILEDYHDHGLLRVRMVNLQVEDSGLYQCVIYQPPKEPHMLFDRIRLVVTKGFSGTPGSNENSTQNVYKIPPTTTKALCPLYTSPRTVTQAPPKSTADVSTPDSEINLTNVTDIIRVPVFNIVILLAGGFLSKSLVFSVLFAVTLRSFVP

For “recombinant human Hsp70 (major heat shock protein 70) (from UniProt P0DMV8 1-641) (natural protein)”, in experiment [1], the cytotoxicity against target cells of lymphocytes activated in PBMCs by six-day treatment with rising Hsp70 concentration (half maximal effective concentration) stood at 0.5 nM and the inhibition of the cytotoxicity of Hsp70-activated lymphocytes by the TREM-1 inhibitor peptide LP17 (…), against LP17 concentration; not completely suppressed at higher concentration worked out at 0.01 nM. In experiment [2], this substance displayed a cytotoxic activity of NK cells isolated on days four and six from PBMCs incubated with Hsp70 with or without the TREM-1 inhibitor LP17 (no difference on day six) of 40%.
